From patent US12428627B2, “Mutant p-hydroxyphenylpyruvate dioxygenase, and coding nucleic acid and use thereof” (Qingdao Kingagroot Chemical Compound Co., Ltd., priority 2018, dated 2025)

Columns and labels:
rice HPPD (OsHPPD) = assay: Color reaction of recombinant E. coli expressing wild-type or mutant rice HPPD, cultured in 96-well plate in medium containing an HPPD-inhibiting herbicide and tyrosine; assay type: cell-based, Oryza sativa; parameters: key to relative resistance to Tembotrione / relative resistance to Benzuofucaotong metabolic product / relative resistance to Huanbifucaotong / relative resistance to Topramezone / relative resistance to Mesotrione / resistance to Tembotrione / resistance to Benzucfucaotong metabolic product / resistance to Huanbifucaotong / resistance to Topramezone / resistance to Mesotrione: The more the plus sign “+”, the deeper the color and the higher the resistance/tolerance as compared to the wild type; settings: for resistance ranking in color reaction: compound 101
Description: The rice full-length OsHPPD enzyme has 446 amino acids and its amino acid sequence is set forth in SEQ ID NO: 2, wherein the amino acids 1-50 are considered to constitute a signal peptide which is responsible for directing into chloroplast (Siehl et al. Plant Physiol. 2014 November; 166(3): 1162-1176). Therefore, from the amino acid at the 51-position to the amino acid at the […], a saturated random mutation was made for each amino acid. This was achieved by performing a bridge PCR by using a primer containing a coding sequence of an amino acid to be mutated into NNK and another suitable conventional primer. In NNK, N represented A/T/G/C and K represented G/T, and the NNK codon could encode any one of 20 amino acids or terminators. Accordingly, this was a saturated mutation. Please see: Kille S. Acevedo-Rocha C G, Parra L P, Zhang Z G, Opperman D J, Reetz M T, Acevedo J P (2013) Reducing codon redundancy and screening effort of combinatorial protein libraries created by saturation mutagenesis. ACS Synth Biol 2(2):83-92; Directed Evolution Library Creation: methods and protocols 2nd ed. Edited by Elizabeth M. J. Gillam, Janine N. Copp and David F. Ackerley New York, NY United States: Springer, 2014. doi:10.1007/978-1-4939-1053-3. A large number of mutants would be produced. The mutant was cloned into a linearized pET-44a vector and transformed into E. co/i, which was cultivated by using a 96-well plate in a 2×YT culture solution containing an HPPD-inhibiting herbicide (such as 1-2 μM tembotrione) and a substrate tyrosine (1 g/L) in a shaker at 28° C. and 150 rpm for 24 hours for expression, and then the mutants were rapidly screened out according to their color browning. By using the method, 10 single amino acid mutants, A103S, H141R, H141 K, H141T, A165V, V191I, R220K, G342D, D370N and K410I, were screened out. The color reaction of these resistant mutants in the presence of tembotrione and the metabolic product of benzuofucaotong relative to that of the wild type was as shown in FIG. 1.
Similarly, the color reaction of these mutants in the presence of the other three HPPD-inhibiting herbicides huanbifucaotong, topramezone and mesotrione were determined, see FIGS. 2 and 3. The resistance/tolerance of each of the mutants to the five herbicides was roughly estimated on the basis of color changes thereof and the results were shown in Table 1. The more the plus sign “+”, the deeper the color and the higher the resistance/tolerance as compared to the wild type.
HPPD-inhibiting herbicides inhibited HPPD enzymatic activity. When tyrosine was converted to 4-hydroxyphenylpyruvate (HPP) under the action of tyrosine transaminase, the inactivated HPPD was unable to oxidize 4-hydroxyphenylpyruvate into homogentisic acid (HGA). HGA was dark brown. Therefore, if an HPPD mutant was resistant to or tolerant to an herbicide, after expressed in E. coli, the mutant could also oxidize 4-hydroxyphenylpyruvate into homogentisic acid, whereby dark brown appeared. Therefore, E. coli was cultured in a 2×YT culture medium containing a HPPD-inhibiting herbicide and a substrate tyrosine using a 96-well plate to express HPPD, and these mutants were rapidly screened according to their color changes. • (1) Preparation of 2×YT culture medium (1 g/L L-Tyr, 0.1 mM IPTG, 0.01 mM MnCl2 and 100 mg/L ampicillin were added). • (2) 0.1 mL of the above medium was added to each well of a 96-well plate, and the expression clones of OsHPPD wild type or mutant (OsHPPD Mut) from the E. coli plate obtained by the above transformation were subjected to liquid culture in the 96-well plate. HPPD inhibitors having a final concentration of 1 μM-20 μM were added according to different selected agents, for example, the final concentration of tembotrione was 1.7 μM while mesotrione was 10 μM. […]

OsHPPD = assay: HPPD enzyme activity assay: Km, Kcat and Kcat/Km of OsHPPDs; assay type: biochemical, Oryza sativa; settings: substrate 4-HPP
Method: The rice OsHPPD protein and homogentisate 1,2-dioxygenase (HGD) were obtained by heterologously expressed in E. coli wherein the gene was inserted into the pET 15b expression vector and expressed in the BL21 (DE3) expression strain, and purified by the Ni-NTA resin. • (1) The HPPD open reading frame (ORF) of the positive clone was cloned into the pET-15b vector to form a 6His-HPPD expression vector, and transformed into the BL21 (DE3) cell. The expression strain was inoculated in 10 mL of 2×YT culture medium, and cultivated overnight on a shaker at 37° C. and 200 rpm. The 10 mL of the culture was inoculated in 1 L of 2×YT culture medium and cultivated until the OD600 reached 0.6-0.8, cooled to a temperature of 16° C., and subjected to induced-expression with 0.2 mM IPTG (isopropyl thiogalactoside) overnight. The strains were collected by centrifugation at 2800×g. • (2) The collected strains were re-suspended with the buffer A (50 mM Tris pH 8.0, 500 mM NaCl, 20 mM imidazole), to which PMSF (phenylmethanesulfonyl fluoride) at the final concentration of 1 mM and 250 μL of a protease inhibitor cocktail (i.e., a mixture of multiple protease inhibitors), and mixed. The cells were broken by ultrasound in ice-bath (40% total power, work for 3 seconds/6 seconds interval, 2×30 minutes (Ningbo Scientz Biotechnology Co., Ltd., Ningbo, China)), and centrifuged at 12000 rpm at 4° C. for 30 minutes; and the supernatant was filtered with a 0.22 μm filter membrane. • (3) Purification with the Ni-NTA column: the supernatant was in contact with the Ni-NTA resin, then rinsed with a buffer A containing 50 mM imidazole to remove the impurities, and finally, eluted with an elution buffer containing 400 mM imidazole. • (4) The approximate purity of the protein of interest was analyzed by SDS-PAGE. The eluates containing of the protein of interest were combined and concentrated by an ultrafiltration device (10 kDa molecular weight cut-off, Amicon Ultra). The solution was replaced with a solution containing 20 mM Tris-HCl and having a pH of 7.5 for at least 3 times to desalt. The total protein concentration was determined by the BCA method.
(§1) • 1. The activity of a HPPD enzyme was determined by detecting the conversion of 4-hydroxyphenylpyruvate (4-HPP) to homogentisic acid (HGA) catalyzed by the HPPD enzyme and the conversion of HGA to maleylacetoacetate (MAA) catalyzed by homogentisate dioxygenase. […] 6 μl of 4-hydroxyphenylpyruvate (4-HPP) having a concentration that was as 50 times as the final concentration of the substrate were added to an ELSA plate, and then 294 μL of hydroxyethylpiperazine ethanesulfonic acid (HEPES) with a final concentration of 25 mM and pH of 7, 2 mM of Vitamin C, 10 mM FeSO4, 50 nM homogentisate dioxygenase and 5 to 240 nM HPPD enzyme were added thereto at one time. The final concentration of reaction substrate 4-HPP usually ranged from 1 to 100 μM. • 3. The absorbance changes of the reaction wells at 318 nm were continuously monitored by a UV ELISA detector (ReadMax 1900 photoabsorption type full-wavelength microplate reader) (Shanghai). • 4. Determination of Km, Kcat and Kcat/Km of OsHPPDs
Vmax is the maximum catalytic reaction rate achievable by enzymatic catalysis. The Michaelis constant Km is the concentration of a substrate required when the enzyme catalyzed the reaction to achieve half of the maximum rate (Vmax). The Km value is a constant and independent of the enzyme concentration, and altered as substrate type, reaction temperature, pH, and ionic strength changed. […] is a catalytic constant of an enzyme and referred to the number of substrate molecules that could be catalyzed by an enzyme molecule or enzyme active center per second. KCat/Km represents the catalytic efficiency of enzyme. It could be seen from the data in the table that the catalytic efficiency of most HPPD mutants was enhanced.

OsHPPD proteins = assay: Inhibitory activity (IC50) of the herbicide 101 and huanbifucaotong against OsHPPD proteins; assay type: biochemical, Oryza sativa; settings: for resistance in in vitro enzyme activity experiments: herbicides 101 and huanbifucaotong
Method: as §1
• 5. Determination of inhibitory activity (IC50) of the herbicide 101 and huanbifucaotong against OsHPPD proteins
Due to the unique properties of each of 101 and huangbifucaotong, the degree of the increased IC50 value is not completely consistent for the two HPPD herbicides.

[1] = Table 1, single-site mutants, estimated from color change, wild type = +
[2] = Table 3, single-site and multi-site mutants, different time and plates, estimated from color shades

Molecule | resistance ranking in color reaction (rice HPPD (OsHPPD)) | Km (OsHPPD) | resistance in in vitro enzyme activity experiments (OsHPPD proteins) | relative resistance to Benzuofucaotong metabolic product (rice HPPD (OsHPPD); [1]) | relative resistance to Huanbifucaotong (rice HPPD (OsHPPD); [1]) | relative resistance to Mesotrione (rice HPPD (OsHPPD); [1]) | relative resistance to Tembotrione (rice HPPD (OsHPPD); [1]) | relative resistance to Topramezone (rice HPPD (OsHPPD); [1]) | resistance to Benzucfucaotong metabolic product (rice HPPD (OsHPPD); [2]) | resistance to Huanbifucaotong (rice HPPD (OsHPPD); [2]) | resistance to Mesotrione (rice HPPD (OsHPPD); [2]) | resistance to Tembotrione (rice HPPD (OsHPPD); [2]) | resistance to Topramezone (rice HPPD (OsHPPD); [2]) | concentration of compound 101 at which activity is completely inhibited (OsHPPD proteins; FIG. 10 inhibition curve)
N338D/G342D/R346H: mutant rice HPPD (protein, listed as Oryza sativa, The amino acid sequence of Wild-Type rice HPPD protein (OsHPPD _WT)) MPPTPTPTATTGAVSAAAAAGENAGFRLVGHRRFVRANPRSDRFQALAFHHVELWCADAASAAGRFAFALGAPLAARSDLSTGNSAHASLLLRSASVAFLFTAPYGGDHGVGADAATTASIPSFSPGAARRFAADHGLAVHAVALRVADAADAFRASVAAGARPAFQPADLGGGFGLAEVELYGDVVLRFVSHPDGADAPFLPGFEGVSNPGAVDYGLRRFDHVVGNVPELAPVAAYISGFTGFHEFAEFTAEDVGTAESGLNSVVLANNAETVLLPLNEPVHGTKRRSQIQTYLDHHGGPGVQHIALASDDVLGTLREMRARSAMGGFEFLAPPPPDYYDDVRRHAGDVLSEEQINECQELGVLVDRDDQGVLLQIFTKPVGDRPTFFLEMIQRIGCMEKDESGQEYQKGGCGGFGKGNFSELFKSIEEYEKSLEAKQAPTVQGS | highest resistance | 6.3 µM | good resistance |  |  |  |  |  |  |  |  |  |  | 
WT: wild-type rice p-hydroxyphenylpyruvate dioxygenase (OsHPPD), SEQ ID NO: 2 (protein, listed as Oryza sativa, The amino acid sequence of Wild-Type rice HPPD protein (OsHPPD _WT)) MPPTPTPTATTGAVSAAAAAGENAGFRLVGHRRFVRANPRSDRFQALAFHHVELWCADAASAAGRFAFALGAPLAARSDLSTGNSAHASLLLRSASVAFLFTAPYGGDHGVGADAATTASIPSFSPGAARRFAADHGLAVHAVALRVADAADAFRASVAAGARPAFQPADLGGGFGLAEVELYGDVVLRFVSHPDGADAPFLPGFEGVSNPGAVDYGLRRFDHVVGNVPELAPVAAYISGFTGFHEFAEFTAEDVGTAESGLNSVVLANNAETVLLPLNEPVHGTKRRSQIQTYLDHHGGPGVQHIALASDDVLGTLREMRARSAMGGFEFLAPPPPNYYDGVRRRAGDVLSEEQINECQELGVLVDRDDQGVLLQIFTKPVGDRPTFFLEMIQRIGCMEKDESGQEYQKGGCGGFGKGNFSELFKSIEEYEKSLEAKQAPTVQGS |  | 6.7 µM |  | + | + | + | + | + | + | + | + | + | + | about 60 μM
H141R/N338D/G342D/K418P: mutant rice HPPD (protein) MPPTPTPTATTGAVSAAAAAGENAGFRLVGHRRFVRANPRSDRFQALAFHHVELWCADAASAAGRFAFALGAPLAARSDLSTGNSAHASLLLRSASVAFLFTAPYGGDHGVGADAATTASIPSFSPGAARRFAADHGLAVRAVALRVADAADAFRASVAAGARPAFQPADLGGGFGLAEVELYGDVVLRFVSHPDGADAPFLPGFEGVSNPGAVDYGLRRFDHVVGNVPELAPVAAYISGFTGFHEFAEFTAEDVGTAESGLNSVVLANNAETVLLPLNEPVHGTKRRSQIQTYLDHHGGPGVQHIALASDDVLGTLREMRARSAMGGFEFLAPPPPDYYDDVRRRAGDVLSEEQINECQELGVLVDRDDQGVLLQIFTKPVGDRPTFFLEMIQRIGCMEKDESGQEYQKGGCGGFGPGNFSELFKSIEEYEKSLEAKQAPTVQGS | strongest resistance | 18.8 µM | higher resistance |  |  |  |  |  |  |  |  |  |  | 
